The results in this text go back to the nanobody polyreactivity screen of Harvey et al. (2022).

The nature of the series: yeast display, Sf9 membrane polyspecificity reagent, FACS + sequencing; frameworks hold sequencing errors. The gist of the method:
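Polyreactivity labels are assigned by the sorting gate from which each nanobody was recovered. The gates were low and high (top ~1%), set on anti-HA fluorescence for expression and streptavidin fluorescence for reagent binding. Before sorting, galactose-induced (36–48 hours) yeast display cells were stained for 1 hour at 4 °C with 10% biotinylated, detergent-solubilized Sf9 membrane reagent.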
With “QVQLVESGGGLVQAGGSLRISCAASGSIFPTYAMGWYRQAPGKERELVAAISGSGGSTYYADSVKGRFTISRDNAKNTVYFQINSLKPEDTAVYYCAVRRRRYHTYYRGYDNWGQGTQVTVSA”, the “polyreactivity (PSR sort gate)” value was “low polyreactivity”.
In the case of “QVQLVESGGGLVQAGGSLRISCAASGSIFRIYAMGWYRQAPGKERELVAAISWTGGSTYYADSVKGRFSISRDNAKNTVYLQMNSMKPDDTAVYYCASRPRYKFSAYEYWGQGTQVTVSS” it was “high polyreactivity”.
With “QVQLVESGGGLVQAGGSLRISCAASGSIFRWNAMGWYRQAPGKERELVAAINWSGGSTYYADSVKGRFTISRDNAKNTVYLQMNSLKPEDTAVYYCAVDYWSGITWVEYWGQGTQVTVSS”, the “polyreactivity (PSR sort gate)” value is on record as “high polyreactivity”.
In the case of “QVQLVESGGGLVQAGGSLRISCAASGSIFSRNAMGWYRQAPGKERELVAAITSGGSTYYADSVKGRFTISRDNAKNTVYLQMNSLKPEDTAVYYCAAVDYYGYVPEFGYWGQGTQVTVSS” it was “low polyreactivity”.
The value for “QVQLVESGGGLVQAGGSLRISCAASGSIFYVYAMGLYRQAPGKERELVAAISRRGARTYYADSVKGRFTISRDNAKNTVYLQMNSLKPEDSAVYYCNADQYYTVGYSAEYEYWGQGTQVTVSS” was “low polyreactivity”; that for “QVQLVESGGGLVQAGGSLRISCAASGSTFFKNAMGWYRQAPGKERELVAAITWSGDRTYADSVKGRFTISRDNAKNTVYLQMNSLKPEDTAVYYCNVDITGYDDDYWGQGPQVTVSS” was “low polyreactivity”.
The value for “QVQLVESGGGLVQAGGSLRISCAASGSTFPYYAMGWYRQAPGKERELVAAISQNGGSTYYADSVKGRFTISRDNAKNTVYLQMNSLKPEDTAGYYCNRTARKLRTVHSSVVGLDYWGQGTQVTVSS” was “low polyreactivity”; that for “QVQLVESGGGLVQAGGSLRISCAASGSTFRYYAMGWYKQAPGKERELVAAITTSGGRTYYADSVKGRFTISRDNAKNTVYLQMNSLKPEDTAVYYCAIRYSTPYLTDNFLSGPGYYYWGQGSQVTVSS” was “high polyreactivity”.
For the sequence “QVQLVESGGGLVQAGGSLRISCAASGSTFWNAMGWYRQAPGKERELVAAIRLSGGSTYYADSVKGRFTISRDNAKNTVYLQMNSLKPEDTAVYYCNSDVTFGYWEYDYWGQGTQVTVSS”, the “polyreactivity (PSR sort gate)” value is “low polyreactivity”.
Turning to “QVQLVESGGGLVQAGGSLRISCAASGSTFYCYAMGWYRQAPGKERELVAAIRRNGDGTYYADSVKGRFTISRDNAKNTVYLQMNSLKPVDTAVYYCAARRFIPRFNYWGQGTQVTVSS”, the “polyreactivity (PSR sort gate)” value is given as “high polyreactivity”.
The value for “QVQLVESGGGLVQAGGSLRISCAASGSTFYKYDMGWYRQAPGKEREFVAVISRSGGNTYYADSVKGRFTISRDNAKNTVYLQMNSLKPEDTAVSYCAADNYPDEYDYWGQGTQVTVSS” was “low polyreactivity”.
In the case of “QVQLVESGGGLVQAGGSLRISCAASGSTFYLYDMGWYRQAPGKERELVANITSGTSTTYADSVKVRFTISRDNAKNTVYLQMNSLKPEDTAVYYCNATYTSPEYDYWGQGTQVTVSS” it was “low polyreactivity”; in that of “QVQLVESGGGLVQAGGSLRISCAASGSTFYRYPMAWYRQAPGKERELVAAISGSGGRTYYADSVKGRFTISRDNAKNTVYLQMNSLKPEYTAVYYCATRFGQRSDYWGQGTQVTVSS”, “high polyreactivity”.
In the case of “QVQLVESGGGLVQAGGSLRISCAASGSTFYYNAMGWYRQAPGKERELVAAISYSGGRTYYADSLTGRFTISRDNAKNTVYLQMNSLKPEDTAVYYCATGQPILALRYAYGYWGQGTQVTVSS” it was “low polyreactivity”.
Regarding “QVQLVESGGGLVQAGGSLRISCAASGSTVRYYAMGWNRQAHGKERHLVARNTSRAGRTYYADSVKGRFTISRDNAKNTVYLQMNSLKPEDTAVYYCAADQSGFRWKWYIRYDYWGQGTQVTVSS”, the “polyreactivity (PSR sort gate)” value was “high polyreactivity”.
As for “QVQLVESGGGLVQAGGSLRISCAASGTNNRTYAMGWYRQSTGKERDLVAAISKRGGSTYYADSVKGRFTISRDKAKNTVYLQMNSLKPEDTEVYYCAKKSTPGYGTSNDSWVQGTQVTVSS”, the “polyreactivity (PSR sort gate)” value is on record as “high polyreactivity”.
